Data reported in patent US20200040059A1.

Assays:
[1] = molecular target: CD112R, expressed on transfected cells (human) (UniProt Q6DKI7); experiment: flow cytometry on transfected cells
[2] = molecular target: CD96, expressed on transfected cells (UniProt P40200); experiment: flow cytometry on transfected cells
[3] = molecular target: T1, human CD226, full length, expressed on transfected cells (human) (UniProt Q15762); experiment: flow cytometry on transfected cells
T1 sequence: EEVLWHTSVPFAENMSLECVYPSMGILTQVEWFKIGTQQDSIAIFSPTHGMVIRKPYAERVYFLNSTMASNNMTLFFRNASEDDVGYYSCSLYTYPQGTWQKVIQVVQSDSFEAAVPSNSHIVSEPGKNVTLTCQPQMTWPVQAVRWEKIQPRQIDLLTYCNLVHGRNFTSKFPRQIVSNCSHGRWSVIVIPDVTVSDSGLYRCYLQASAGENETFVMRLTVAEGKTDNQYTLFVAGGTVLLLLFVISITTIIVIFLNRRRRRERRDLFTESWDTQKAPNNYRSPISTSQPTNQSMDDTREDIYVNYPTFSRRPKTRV

PD-1 (human) = experiment: cell-based or functional assay

CD112R, expressed on transfected cells (human), sequence (Q6DKI7 whole entry): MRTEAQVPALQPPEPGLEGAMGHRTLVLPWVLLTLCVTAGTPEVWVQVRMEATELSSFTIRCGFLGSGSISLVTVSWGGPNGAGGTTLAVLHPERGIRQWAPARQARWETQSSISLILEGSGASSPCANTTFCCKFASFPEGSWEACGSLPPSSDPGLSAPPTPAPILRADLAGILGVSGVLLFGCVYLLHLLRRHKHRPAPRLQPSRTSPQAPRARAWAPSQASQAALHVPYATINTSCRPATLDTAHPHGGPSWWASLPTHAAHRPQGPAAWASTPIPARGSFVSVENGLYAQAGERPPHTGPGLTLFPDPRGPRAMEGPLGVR

Substance	MFI at 100 nM [1]	MFI at 100 nM [2]	MFI at 100 nM [3]	Fold increase over wildtype PD-L2 IgV-Fc, MLR IFN gamma (PD-1 (human))	IFN gamma levels pg/mL, MLR (PD-1 (human))
CD155 variant G111R IgV-Fc (from UniProt P15151 24-139) (Fc fusion)	2470	3320	2790	–	–
CD155 variant Q62F, L104E, G111R IgV-Fc (from UniProt P15151 24-139) (Fc fusion)	1700	1520	2040	–	–
CD155 variant S42A IgV-Fc (from UniProt P15151 24-139) (Fc fusion)	1730	1620	2190	–	–
CD155 variant S42A, L104Q, G111R IgV-Fc (from UniProt P15151 24-139) (Fc fusion)	1820	1700	1900	–	–
CD155 variant S42A, S52Q, L104Q, G111R IgV-Fc (from UniProt P15151 24-139) (Fc fusion)	1890	1640	2160	–	–
CD155 variant S42C IgV-Fc (from UniProt P15151 24-139) (Fc fusion)	1680	1590	2100	–	–
CD155 variant S42C, S52L IgV-Fc (from UniProt P15151 24-139) (Fc fusion)	1660	1480	2150	–	–
CD155 variant S42C, S52M, Q62F IgV-Fc (from UniProt P15151 24-139) (Fc fusion)	1590	1480	2080	–	–
CD155 variant S42G, S52L, Q62F, L104Q IgV-Fc (from UniProt P15151 24-139) (Fc fusion)	1660	1640	2160	–	–
CD155 variant S42G, S52Q, L104E, G111R IgV-Fc (from UniProt P15151 24-139) (Fc fusion)	1710	1710	2020	–	–
CD155 variant S42L IgV-Fc (from UniProt P15151 24-139) (Fc fusion)	1740	1620	2190	–	–
CD155 variant S42W, S52R, Q62Y, L104Q IgV-Fc (from UniProt P15151 24-139) (Fc fusion)	1820	–	2300	–	–
CD155 variant S52M IgV-Fc (from UniProt P15151 24-139) (Fc fusion)	1550	–	1900	–	–
CD155 variant S52W IgV-Fc (from UniProt P15151 24-139) (Fc fusion)	–	1710	2040	–	–
PD-L2 IgV-Fc I13V, H15Q, I36V, T47A, S67L, V89D (Fc fusion)	–	–	–	0.99 fold	1360 pg/mL
PD-L2 IgV-Fc I13V, H15Q, L33F, T47A, Q82R, V89D (Fc fusion)	–	–	–	1.07 fold	1470 pg/mL
PD-L2 IgV-Fc I13V, H15Q, Q72H, R76G, I86T (Fc fusion)	–	–	–	0.89 fold	1220 pg/mL
PD-L2 IgV-Fc I13V, H15Q, Q82R (Fc fusion)	–	–	–	1.04 fold	1430 pg/mL
PD-L2 IgV-Fc I13V, H15Q, Q82R, V89D (Fc fusion)	–	–	–	1.16 fold	1600 pg/mL
PD-L2 IgV-Fc I13V, H15Q, R76G, D77N, Q82R, V89D (Fc fusion)	–	–	–	0.86 fold	1190 pg/mL
PD-L2 IgV-Fc I13V, H15Q, R76G, I85F (Fc fusion)	–	–	–	1.11 fold	1530 pg/mL
PD-L2 IgV-Fc I13V, H15Q, S39I, E44D, S67L (Fc fusion)	–	–	–	0.91 fold	1260 pg/mL
PD-L2 IgV-Fc I13V, H15Q, S67L, I86T (Fc fusion)	–	–	–	0.74 fold	1010 pg/mL
PD-L2 IgV-Fc I13V, H15Q, T37A, E44D, S48C, S67L, Q82R, V89D (Fc fusion)	–	–	–	1.27 fold	1750 pg/mL
PD-L2 IgV-Fc I13V, H15Q, T47A, E58G, S67L, Q82R, V89D (Fc fusion)	–	–	–	0.61 fold	836 pg/mL

Substance	MFI at 100 nM [1]	MFI at 100 nM [2]	MFI at 100 nM [3]	Fold increase over wildtype PD-L2 IgV-Fc, MLR IFN gamma (PD-1 (human))	IFN gamma levels pg/mL, MLR (PD-1 (human))
PD-L2 IgV-Fc I13V, H15Q, T47A, H69L, R76G, V89D (Fc fusion)	–	–	–	0.78 fold	1080 pg/mL
PD-L2 IgV-Fc I13V, H15Q, T47A, Q72H, R76G (Fc fusion)	–	–	–	1.07 fold	1470 pg/mL
PD-L2 IgV-Fc I13V, H15Q, T47A, Q72H, R76G, I86T (Fc fusion)	–	–	–	0.79 fold	1090 pg/mL
PD-L2 IgV-Fc I13V, H15Q, T47A, Q82R (Fc fusion)	–	–	–	1.24 fold	1700 pg/mL
PD-L2 IgV-Fc I13V, H15Q, T47A, Q82R, V89D (SEQ ID NO 1544) (Fc fusion)	–	–	–	1.05 fold	1450 pg/mL
PD-L2 IgV-Fc I13V, H15Q, T47A, Q82R, V89D (SEQ ID NO 1545) (Fc fusion)	–	–	–	1.26 fold	1740 pg/mL
PD-L2 IgV-Fc I13V, H15Q, T47A, R76G, V89D (Fc fusion)	–	–	–	0.91 fold	1250 pg/mL
PD-L2 IgV-Fc I13V, H15Q, T47A, S67L, Q72H, R76G, Q82R, V89D (Fc fusion)	–	–	–	1.13 fold	1560 pg/mL
PD-L2 IgV-Fc I13V, H15Q, V31A, N45S, Q82R, V89D (Fc fusion)	–	–	–	1.25 fold	1720 pg/mL
PD-L2 IgV-Fc I13V, H15Q, V89D (Fc fusion)	–	–	–	0.82 fold	1120 pg/mL
PD-L2 IgV-Fc I13V, Q72H, R76G, I86T (Fc fusion)	–	–	–	1.42 fold	1950 pg/mL
PD-L2 IgV-Fc I13V, S39I, E44D, Q82R, V89D (Fc fusion)	–	–	–	0.68 fold	936 pg/mL
PD-L2 IgV-Fc I13V, S67L, Q82R, V89D (Fc fusion)	–	–	–	1 fold	1370 pg/mL
PD-L2 IgV-Fc I13V, S67L, V89D (Fc fusion)	–	–	–	0.63 fold	868 pg/mL
PD-L2 IgV-Fc N24D (Fc fusion)	–	–	–	1.44 fold	1980 pg/mL
PD-L2 IgV-Fc N32D, S67L, V89D (Fc fusion)	–	–	–	0.87 fold	1190 pg/mL
PD-L2 IgV-Fc Q82R, V89D (Fc fusion)	–	–	–	1.17 fold	1620 pg/mL
PD-L2 IgV-Fc S39I, V89D (Fc fusion)	–	–	–	0.95 fold	1310 pg/mL
PD-L2 IgV-Fc S67L, I85F (Fc fusion)	–	–	–	0.93 fold	1280 pg/mL
PD-L2 IgV-Fc S67L, I86T (Fc fusion)	–	–	–	0.74 fold	1020 pg/mL
PD-L2 IgV-Fc S67L, V89D (Fc fusion)	–	–	–	0.89 fold	1230 pg/mL
PD-L2 IgV-Fc V89D (Fc fusion)	–	–	–	0.85 fold	1170 pg/mL
Wild Type PD-L2 IgV (Fc fusion)	–	–	–	–	1380 pg/mL
Wildtype CD155 ECD-Fc (from UniProt P15151 21-343) (Fc fusion)	1780	99000	–	–	–
